{"source": "paper PMC7530888", "molecular_target": "GST-tagged MtbXthA (M. tuberculosis class II AP-endonuclease/3'-5' exonuclease XthA) (M. tuberculosis) (UniProt P96273)", "test": "SPR"}
{"substance": "BRCT domain of MtbLigA, His-tagged (from UniProt P9WNV1 1-691) (domain or fragment)", "values": [{"measurement": "Kd", "value": 67.7, "unit": "nM"}]}
